What was measured:
HPV11 L1 protein [1] = target: T1, HPV11 L1 protein (human papillomavirus type 11, UniProt P04012 1-501); assay: co-expression, glutathione sepharose eluate, densitometry
T1 construct: Full-length HPV11 L1 DNA amplified from pVL11L1
T1 sequence: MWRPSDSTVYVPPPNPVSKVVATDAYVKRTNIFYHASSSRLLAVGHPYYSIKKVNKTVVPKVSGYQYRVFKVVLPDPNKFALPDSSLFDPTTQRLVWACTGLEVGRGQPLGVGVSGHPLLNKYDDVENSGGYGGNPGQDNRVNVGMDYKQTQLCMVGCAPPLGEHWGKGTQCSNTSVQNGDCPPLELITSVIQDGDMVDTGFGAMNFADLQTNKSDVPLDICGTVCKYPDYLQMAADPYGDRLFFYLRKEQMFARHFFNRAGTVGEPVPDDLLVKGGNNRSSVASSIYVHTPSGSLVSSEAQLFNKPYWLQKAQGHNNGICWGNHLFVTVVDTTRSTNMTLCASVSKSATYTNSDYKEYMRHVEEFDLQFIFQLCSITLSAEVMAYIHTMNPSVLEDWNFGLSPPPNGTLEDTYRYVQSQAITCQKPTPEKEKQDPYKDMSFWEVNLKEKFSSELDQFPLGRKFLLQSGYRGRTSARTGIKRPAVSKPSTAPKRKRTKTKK

HPV11 L1 protein [2] = target: T1, HPV11 L1 protein; assay: densitometry after size exclusion chromatography of the complex
HPV11 L1 protein [3] = target: T1, HPV11 L1 protein; assay: densitometry of partially purified glutathione sepharose eluates
HPV11 L1 protein [4] = target: T1, HPV11 L1 protein; assay: co-expression, glutathione sepharose eluate, densitometry of Coomassie-stained SDS-PAGE

B1: HPV11 GST-L2 (313-455) (other)
chain: GARIHYFQDISPVTQAAEEIELHPLVAAENDTFDIYAEPFDPIPDPVQHSVTQSYLTSTPNTLSQSWGNTTVPLSIPSDWFVQSGPDITFPTASMGTPFSPVTPALPTGPVFITGSDFYLHPTWYFARRRRKRIPLFFTDVAA
notes: Carboxy-terminal third of HPV11 L2; also called pXA/BN-HPV11L2/313-455; HPV GST=L2(313455); not shown: glutathione-S-transferase (GST) fusion partner from vector pXA/BN (multiple cloning site of pGEX-4T-2); thrombin-cleavab
B1 was tested, and the “L1:L2” value (HPV11 L1 protein [1]) was 2 L1:L2 ratio, the “L1:L2” value (HPV11 L1 protein [2]) was ~5 L1:L2 ratio and the “L1:L2” value (HPV11 L1 protein [3]) was ~2 L1:L2 ratio. For the same binder, the “L1:L2” value (HPV11 L1 protein [4]) was > 1 L1:L2 ratio.

Source: patent US20090220535A1 (REGENTS OF THE UNIVERSITY OF COLORADO, published 2009)
